In publication PMC10635007:

Assays:
[1] = target: FUT2-fucosylated E-cadherin (co-expressed with FUT2; with terminal fucosylation) (UniProt P12830); experiment: atomic force microscopy
[2] = target: E-cadherin control (expressed without FUT2; without terminal fucosylation) (UniProt P12830); experiment: atomic force microscopy

Substance	mean maximum adhesion force [1] [nN]	mean maximum adhesion force [2] [nN]
FUT2-fucosylated E-cadherin (co-expressed with FUT2; with terminal fucosylation) (from UniProt P12830 23-882) (natural protein)	79.8	–
E-cadherin control (expressed without FUT2; without terminal fucosylation) (from UniProt P12830 23-882) (natural protein)	–	63.5
